In patent US20050148532A1:

Target: histidine tagged p85 with serine 83 mutated to alanine (p85^S83A) (UniProt P27986)
Assay: cell-based or functional assay

Chain of HA-14-3-3 zeta (hemagglutinin-tagged 14-3-3 zeta) (P63103 whole entry): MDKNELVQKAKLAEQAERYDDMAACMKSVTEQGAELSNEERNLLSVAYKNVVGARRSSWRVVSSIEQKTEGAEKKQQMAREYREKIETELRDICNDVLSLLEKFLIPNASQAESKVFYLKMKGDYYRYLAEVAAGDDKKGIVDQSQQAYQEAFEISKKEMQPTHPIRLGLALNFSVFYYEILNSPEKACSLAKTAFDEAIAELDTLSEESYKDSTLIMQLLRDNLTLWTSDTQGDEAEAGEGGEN

- decrease in activation of PI3K (production of PIP3 in PY20 immunoprecipitates): 35%
Substance: HA-14-3-3 zeta (hemagglutinin-tagged 14-3-3 zeta) (from UniProt P63103 1-245)
